Measured values from patent US20200024330A1.

Assays:
Test in all cases: cell-based or functional assay
[1] = target: HIV-1 Env of isolate MGRM-AE-007 (HIV-1)
[2] = target: HIV-1 Env of isolate MGRM-AE-008 (HIV-1)
[3] = target: HIV-1 Env of isolate MGRM-AG-001 (HIV-1)
[4] = target: HIV-1 Env of isolate MGRM-AG-002 (HIV-1)
[5] = target: HIV-1 Env of isolate MGRM-AG-003 (HIV-1)
[6] = target: HIV-1 Env of isolate MGRM-AG-005 (HIV-1)
[7] = target: HIV-1 Env of isolate MGRM-AG-006 (HIV-1)
[8] = target: HIV-1 Env of isolate MGRM-AG-008 (HIV-1)
[9] = target: HIV-1 Env of isolate MGRM-AG-009 (HIV-1)
[10] = target: HIV-1 Env of isolate MGRM-AG-011 (HIV-1)
[11] = target: HIV-1 Env of isolate MGRM-AG-012 (HIV-1)
[12] = target: HIV-1 Env of isolate MGRM-AG-013 (HIV-1)
[13] = target: aMLV envelope (negative control pseudovirus)
[14] = target: HIV-1 MGRM-A-010 envelope glycoprotein (Env) (HIV-1)
[15] = target: HIV-1 Env of isolate JRFL (HIV-1)
[16] = target: HIV-1 Env of isolate MGRM-Chronic-B-010 (HIV-1)
[17] = target: HIV-1 Env of isolate MGRM-Chronic-B-011 (HIV-1)
[18] = target: HIV-1 Env of isolate MGRM-Chronic-B-012 (HIV-1)
[19] = target: HIV-1 Env of isolate MGRM-Chronic-B-017 (HIV-1)
[20] = target: HIV-1 Env of isolate MGRM-Chronic-B-018 (HIV-1)
[21] = target: HIV-1 Env of isolate MGRM-Chronic-B-020 (HIV-1)
[22] = target: HIV-1 Env of isolate MGRM-Chronic-B-023 (HIV-1)
[23] = target: HIV-1 Env of isolate MGRM-Chronic-B-024 (HIV-1)

Substance	IC50 [1] [µg/mL]	IC50 [2] [µg/mL]	IC50 [3] [µg/mL]	IC50 [4] [µg/mL]	IC50 [5] [µg/mL]	IC50 [6] [µg/mL]	IC50 [7] [µg/mL]	IC50 [8] [µg/mL]	IC50 [9] [µg/mL]	IC50 [10] [µg/mL]	IC50 [11] [µg/mL]	IC50 [12] [µg/mL]	neutralization IC50 [13] [µg/mL]	also measured
PGT-144 (4970_K22) (antibody)	> 50	3.55	> 50	7.78	> 50	> 50	> 50	> 50	> 50	44.6	> 50	> 40	> 50	
PGT-143 (4980_N08) (antibody)	13.6	0.135	18.9	0.076	> 50	1.11	> 50	34	> 50	0.156	> 50	> 50	> 50	
PGT-122 (antibody)														IC50 neutralization [14]: 1.68 µg/mL
VRC01 (antibody)	0.835	1.72	0.228	0.95	0.043	0.091	0.344	0.124	> 50	0.084	0.031	0.197	> 50	IC50 [15]: 0.034 µg/mL; neutralization IC50 [16]: 0.156 µg/mL; neutralization IC50 [17]: 0.587 µg/mL; neutralization IC50 [18]: 1.03 µg/mL; neutralization IC50 [19]: 0.141 µg/mL; neutralization IC50 [20]: 0.328 µg/mL; neutralization IC50 [21]: 0.424 µg/mL; neutralization IC50 [22]: 0.275 µg/mL; neutralization IC50 [23]: 0.377 µg/mL
PGT-141 (4964_G22; 4993_K13) (antibody)	33.1	0.101	18	0.049	> 50	0.497	> 50	19.2	> 50	0.118	> 50	> 50	> 50	
